Measured values reported in patent US20240400711A1 (SOUND BIOPHARMACEUTICALS, published 2024).
Positions count from the first letter of the chain named.

B1: FTL004-hu-4 (antibody, human IgG1, kappa, V domains shown)
VH: QVQLVQSGSELKKPGASVKVSCKASGYTFTDYNVHWIRQAPGQGLEWIGYFYPRNGATHYAQGFTGRAVLSADTSVSTAYLQISSLKAEDTAVYYCARGETPGTFPYWGQGTLVTVSS
VL: EIVLTQSPATLSLSPGERATLSCRASESVDNFGITFMHWYQQKPGQAPRLLIYRASNLESGIPARFSGSGSRTDFTLTISSLEPEDFAVYYCQQSSKDPRTFGQGTKLEIKR
notes: also called FLT004-hu-4; FTL004-hum-4
B2: FTL004-hu-8 (antibody, human IgG1, kappa, V domains shown)
VH: QVQLVQSGAEVKKPGASVKVSCKASGYTFTDYNVHWIRQAPGQGLEWIGYFYPRNGATHYAQKFQGRVTMTVDTSTSTAYMELSSLRSEDTAVYYCARGETPGTFPYWGQGTLVTVSS
VL: DIVLTQSPASLAVSPGQRATITCRASESVDNFGITFMHWYQQKPGQPPKLLIYRASNLESGVPARFSGSGSRTDFTLTINPVEANDTANYYCQQSSKDPRTFGQGTKLEIKR
notes: also called FLT004-hu-8; FTL004-hum-8
B3: FTL004-hu-9 (antibody, human IgG1, kappa, V domains shown)
VH: B2 VH with A61N, Q65T, V68A, M70L, L83I, Y95F
VL: B1 VL
notes: also called FLT004-hu-9; FTL004-hum-9
B4: FTL004-hu-2 (antibody, human IgG1, kappa, V domains shown)
VH: B1 VH
VL: B2 VL
notes: also called FLT004-hu-2; FTL004-hum-2
B5: FTL004-hu-11 (antibody, human IgG1, kappa, V domains shown)
VH: B2 VH with A61N, Q65T, V68A, M70L, L83I, Y95F
VL: DIQLTQSPSSLSASVGDRVTITCRASESVDNFGITFMHWYQQKPGKAPKLLIYRASNLESGVPSRFSGSGSRTDFTLTISSLQPEDFATYYCQQSSKDPRTFGQGTKLEIKR
notes: also called FLT004-hu-11; FTL004-hum-11
B6: FTL004-hu-3 (antibody, human IgG1, kappa, V domains shown)
VH: B1 VH with A61N, G63K, Y95F
VL: B1 VL
notes: also called FLT004-hu-3; FTL004-hum-3
B7: FTL004-hu-15 (antibody, human IgG1, kappa, V domains shown)
VH: EVQLVQSGAEVKKPGATVKISCKASGYTFTDYNVHWIQQAPGKGLEWIGYFYPRNGATHYNQKFTGRATLTADTSTDTAYMEISSLRSEDTAVYFCARGETPGTFPYWGQGTLVTVSS
VL: B1 VL
notes: also called FLT004-hu-15; FTL004-hum-15
B8: FTL004-hu-12 (antibody, human IgG1, kappa, V domains shown)
VH: B2 VH with A61N, Q65T, V68A, M70L, L83I, Y95F
VL: B5 VL with R24Q, S60T, L77F, F87I
notes: also called FLT004-hu-12; FTL004-hum-12
B9: FTL004-hu-5 (antibody, human IgG1, kappa, V domains shown)
VH: B1 VH with A61N, G63K, Y95F
VL: B5 VL
notes: also called FLT004-hu-5; FTL004-hum-5
B10: FTL004-hu-13 (antibody, human IgG1, kappa, V domains shown)
VH: B7 VH
VL: B2 VL
notes: also called FLT004-hu-13; FTL004-hum-13
B11: FTL004-hu-17 (antibody, human IgG1, kappa, V domains shown)
VH: B7 VH
VL: B5 VL
notes: also called FLT004-hu-17; FTL004-hum-17

What follows are binders tested against T1, recombinant extracellular domain of CD38 (human, UniProt P28907 43-300) (assay: Biacore SPR).
T1 construct: also called CD38 extracellular domain; AtaGenix ATMP00140HU
Work on B1 yielded a Kd of 10.5 nM, a koff of 0.00313 s⁻¹ and a kon of 297000 M⁻¹ s⁻¹. With B2 the Kd was 8.39 nM, the koff was 0.00257 s⁻¹ and the kon was 307000 M⁻¹ s⁻¹. B3 showed a Kd of 3.04 nM, a koff of 0.000699 s⁻¹ and a kon of 230000 M⁻¹ s⁻¹. B4 was tested, and the Kd was 8.3 nM, the koff was 0.00285 s⁻¹ and the kon was 344000 M⁻¹ s⁻¹. In the case of B5, the Kd is reported as 2.87 nM, the koff is reported as 0.000848 s⁻¹ and the kon is reported as 296000 M⁻¹ s⁻¹. B6 showed a Kd of 1.5 nM, a koff of 0.00052 s⁻¹ and a kon of 347000 M⁻¹ s⁻¹. Binder B7 has a Kd of 3.66 nM, a koff of 0.000784 s⁻¹ and a kon of 214000 M⁻¹ s⁻¹. With B8 the Kd was 3.54 nM, the koff was 0.00083 s⁻¹ and the kon was 234000 M⁻¹ s⁻¹. B9 was tested, and the Kd was 1.65 nM, the koff was 0.000686 s⁻¹ and the kon was 415000 M⁻¹ s⁻¹. B10 was tested, and the Kd was 2.78 nM, the koff was 0.000853 s⁻¹ and the kon was 307000 M⁻¹ s⁻¹. For B11, the Kd was 3.09 nM, the koff was 0.000848 s⁻¹ and the kon was 275000 M⁻¹ s⁻¹.
